This data set can be described thus: yeast display, Sf9 membrane polyspecificity reagent, FACS + sequencing; frameworks hold sequencing errors. An outline of the steps: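 Sorting gates, low and high (top ~1%), were placed on anti-HA fluorescence to track expression and on streptavidin fluorescence to track reagent binding. A clone's polyreactivity label is taken from the gate it came out of. The reagent was 10% biotinylated, detergent-solubilized Sf9 membrane, applied for 1 hour at 4 °C to galactose-induced yeast display cells.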
Turning to “QVQLVESGAGLVQAGGSLRLSCAASGYTFSKNTMGWYRQAPGKERELVAAISRSGGSTYYADSVKGRFTISRDNAKNTFYLQMNSLKPEDTAVYYSAKRVSTYGFSGYDYWGQGTQVTVSS”, the “polyreactivity (PSR sort gate)” value is given as “high polyreactivity”.

For “QVQLVESGAGLVQAGGSLRLSCAGSGLTFRGNAMGCYRQAPGKERELVAAISWSDDTTDYADSVKGRFTISRDNAKNTVYLQMNSLKPEDTAVYYCAARRRIYRSMGFWGQGSQVTVSS”, the “polyreactivity (PSR sort gate)” value is “low polyreactivity”.

Take “QVQLVESGAGLVQAGGSLRLSCAPSGIIFYWNTMAWYRQAPGKERELVAAISSRSGSTYYADSVKGRFTISRDNAKNTVYLQMISLKPEDTAVFYCAARYGYRYADKGTDYGYWGQGTQVTVSS”: the “polyreactivity (PSR sort gate)” value is on record as “high polyreactivity”.

“QVQLVESGAGLVQAGGSLRLSCAPSGRIFYYAMGWYRQAPGKERELVAAISSGGSTNYADSVKGRFTISRDNSKNSVYLQMNSLKPEDTAVYYCAADRYWRWPRRDYWGQGTQVTVSS”: the “polyreactivity (PSR sort gate)” value was “low polyreactivity”.

Turning to “QVQLVESGAGLVQAGGSLRLSCAPSGSTFEDYAMGWYRQAPGKERELVAAISHIGGSTYYADSVKGRFTISRDNAKNTVYLQMNSLKPEDTAVYYCAKGGFSSKFDYWGQGTQVTVSS”, the “polyreactivity (PSR sort gate)” value is “low polyreactivity”.

For “QVQLVESGAGLVQAGGSLRLSCASSGTIFWGYAMGWYRQAPGKERELVAAITDSGGRTYYADSVKGRFTISRDNAKNTVYLQMNCLKPEDTAVYYCAADYYSQYYYYAVPDRDYWGQGTQVTVSS”, the “polyreactivity (PSR sort gate)” value is recorded as “low polyreactivity”.

For the sequence “QVQLVESGAGLVQAGGSLRLSSAASGLTFQTYAMGCYRQAPGKEREYVATISNGSSTYYADSVKGRFTISRDNAKNTVYFQMNILKPEDTAVYYCAKDYYYSRNQLYGHDYWGQGPQVTVSS”, the “polyreactivity (PSR sort gate)” value was “low polyreactivity”.

Consider “QVQLVESGAGLVQAGGSLRLTCAASGSNFYYYAMGWYRQAPGKERELVAAINGGDTYYADSVKGRFTISRDNAKNTVYLQMNSLKPEDTAVFYCAAEGVTVEWDYDYWGQGTQVTVSS”, for which the “polyreactivity (PSR sort gate)” value is listed as “low polyreactivity”.

In the case of “QVQLVESGAGLVQAGGSLRLTCAPSGSIFNIYSMGWYRQAPGKDRELVATITGIADSTYYADSVKGRFTISRDNANNTVYLQMNILKPEDTAFYYCAADIYVAEYDYWGQGTQVTVSS”, the “polyreactivity (PSR sort gate)” value is “low polyreactivity”.

Take “QVQLVESGAGLVQAGGSLSLSCAASGRTIVTNAMGWYRQAPGKERELVAAINGRGDNTYYADSVKGRFTISRDNAKNTFYLQMNSLKPEDTAVYYCAVRRGYHSHTKYYYWGLGTQVTVSS”: the “polyreactivity (PSR sort gate)” value is “high polyreactivity”.

In the case of “QVQLVESGAGLVQEVGSLRLSCAASGFTFGVNAMGSSRQAPGKERQFVASIRVRGCSTYYADSEKGRFTISRDNAKNTVYLQMNSLKPEDTAVYFCNAEVYVSSYATEMDYWGQGTQVTVSS”, the “polyreactivity (PSR sort gate)” value is “low polyreactivity”.

Take “QVQLVESGARLVQAGGSLRLSCAASAYTLVGYAMGWYRQEPGKERELVADINFSGGRTYYADSVKGRFTISRDNAKNNVYLQMNSLKPEDTAVYYCNAAGALSWFYYGYDYWGQGTQVTLSS”: the “polyreactivity (PSR sort gate)” value is listed as “low polyreactivity”.

With “QVQLVESGARLVQAGGSLRLSCDASGITFFAYAIGWYRQAQGKERELVAAISCNTGRTYYADSVKGRFTISRDNAKITVYLQMNSLKPEDTAVYYCAKRGVGVGYNYWGQGTQVTVSS”, the “polyreactivity (PSR sort gate)” value is “high polyreactivity”.

With “QVQLVESGEGLVQAGGSLRLICAASGRNFYSNAMVWYRQAPGKERELVAAMSYSGGSTYYADSVKGRFTISRDNAKNTVYLQMNSLKPEDTAVYYCAADTTYWPYWGTYVVYDYWGQGTQVTVSS”, the “polyreactivity (PSR sort gate)” value is recorded as “low polyreactivity”.

In the case of “QVQLVESGEGLVQAGGSLRLSCAASRRIFEYYFMGWYSQAPGKERELVAAMNRRGTSTYYADSVKGRFTISRDNAKNTVYLQMNSLKPEDTAVYYCAAVDRDYARTTTYDYWGQGTEVTVSS”, the “polyreactivity (PSR sort gate)” value was “high polyreactivity”.

Regarding “QVQLVESGGALGQAGGSLRLTSAASGITFPRYAIGWYRHAPGKEREMVATITRSGGGTYYADSVKGRFKISRDNAKNTVYLQMNSLKPEDTSVFYCAAGALQRGVYGYGFWGQGTQVTVSS”, the “polyreactivity (PSR sort gate)” value is “high polyreactivity”.

As to “QVQLVESGGALLQAGGSLRLSCAASGRTFGYNAMGWYRQAPGKEREMVAAITYSGGRTSYADSVKGRFTISRDNAKNTVYLQMNSLKPEDTAVYYCAAQTRYYSGYNYWGQATQVTVSS”, the “polyreactivity (PSR sort gate)” value is given as “high polyreactivity”.

As for “QVQLVESGGALVHAGGSLRLSCAASGSTFSGYDMVWYRQAPGKERELVAAISTYYADSVKGRFTISRDNAKTTVFLQMYCLKPEDRAVYYCAKPWGRYDYLGQGTQVTVSS”, the “polyreactivity (PSR sort gate)” value is reported as “low polyreactivity”.

Regarding “QVQLVESGGALVQAGGSLRLICAASGRIFQRYTKGWYRQAPGKERELVAAITYSGGRTYYADSVKGRFTISRDNAKNTVYLQMNSLKPEDTAVYYCYAAYFNWYTHVWNDYWGQGTQVTVSS”, the “polyreactivity (PSR sort gate)” value is given as “high polyreactivity”.

For the sequence “QVQLVESGGALVQAGGSLRLICAASGSIFGYNAMGWYRPSPGKEREFVASIRDRGGSTYYADSVKGRFTISRDNAKNTLYFQMKSLKQEDTAVYYGDAYWWGVSKRQYGYWGQGTQVTVSS”, the “polyreactivity (PSR sort gate)” value is recorded as “high polyreactivity”.

“QVQLVESGGALVQAGGSLRLICAASGSILYAYAMGWYRQAPGKERELVATNSYRGDRTRYADSVKGRFTISRDNAKNTVYLQMNSLKPEDTAVYSCAAKRKTSVPPVVKWSGYWGQGTQVTVSS”: the “polyreactivity (PSR sort gate)” value is reported as “high polyreactivity”.

Take “QVQLVESGGALVQAGGSLRLSCAASGFTFIPNAMGWYRQAPGKERELVAAIYSSGGTTYYADSVKGRFTISRDTAKNTVYLQMNSLKTEDTAVYYCARRVYGYYIPYNYWGQATQVTVSS”: the “polyreactivity (PSR sort gate)” value is recorded as “high polyreactivity”.

For the sequence “QVQLVESGGALVQAGGSLRLSCAASGIIFGRNGMGWYRQAPGKERELVAAISRGGGSTYYADSVKGRFTISRDNAKNTVYLQMNSLKPEDTAVYYCARRPTGIYDYWGQVTQVTVSS”, the “polyreactivity (PSR sort gate)” value is on record as “high polyreactivity”.

For “QVQLVESGGALVQAGGSLRLSCAASGITFARNAMGWYRQAPGKERELVAVISTRGGRTYYADSVKGRFTISRDNAKNTVYLQMNSLKPEDTAVYYCAASPDPYWRRMDYWGQGTQVTVSS”, the “polyreactivity (PSR sort gate)” value is “high polyreactivity”.

Regarding “QVQLVESGGALVQAGGSLRLSCAASGLTFTDYAMGWYRPAPGQERELVAGIWDGGSTYYADSVKGRFTISRDNAKNTVYLQMNSLKPEDTAVYYCAAEDWWTSFPEYYYWGQGTQVTVSS”, the “polyreactivity (PSR sort gate)” value is reported as “high polyreactivity”.

“QVQLVESGGALVQAGGSLRLSCAASGRIFGVNAMGWYRQAPGKERELVAAITSRGGSTYYADSVKGRFTISRDNAKNTVYLQMHSLTPEDTEVYYCRGWRYFTDKTYDYWGQGTQVTVSS”: the “polyreactivity (PSR sort gate)” value is listed as “high polyreactivity”.

For the sequence “QVQLVESGGALVQAGGSLRLSCAASGRIFGYYAMGWYRQAPGKERELVAAITVSGTSTYYADSVKGRFTISRDNAKNTVYLQMNSLKPEDTAVYYCAARPRRRYYGYDSWGQGTQVTVSS”, the “polyreactivity (PSR sort gate)” value is recorded as “high polyreactivity”.

On to “QVQLVESGGALVQAGGSLRLSCAASGRIFIVYAMRWYRQAPGKERELVASITSGASTNYADSVKGRFTISRDNAKNTVYLQMNSLKPEDTAVYDCNADGPGAYLSEFGYWGQGTQVTVSS”, for which the “polyreactivity (PSR sort gate)” value is recorded as “low polyreactivity”.

Turning to “QVQLVESGGALVQAGGSLRLSCAASGRIFSRYVIRWYRQAPGKERELVAAISWNGGSTYYADSVKGRFRISRDNAKNTVYLQMNSLKPEDTAVYYCAARVRVTGTYYTKFDYWGQGTQVTVSS”, the “polyreactivity (PSR sort gate)” value was “high polyreactivity”.

On to “QVQLVESGGALVQAGGSLRLSCAASGRIFSSYAMGWYRQEPGKERELVAAISRSGARTYYADSVKGRFTISRDNAKYSVYLQMNSLIAEDSAVSYCAAVTVSCYDYWGQGTQVTVSS”, for which the “polyreactivity (PSR sort gate)” value was “high polyreactivity”.

In the case of “QVQLVESGGALVQAGGSLRLSCAASGRTFGHNAMGCSRQAPGKEREFVAAITYSGVRTFYADSVKGRFTISRDNAQNTVYLQMNSLKPEDTAVYYCATDWRRDYDYWGQGTQVTVSS”, the “polyreactivity (PSR sort gate)” value is listed as “low polyreactivity”.

For “QVQLVESGGALVQAGGSLRLSCAASGRTFGVYAMGWYRQAPGKERELVAAISRRAGNTYYADSVKGRFTISRDNAKNTVYLQMNSLKTEDTAVYYCAADFSRQYGYWGQGTQVTVSS”, the “polyreactivity (PSR sort gate)” value is “high polyreactivity”.

Take “QVQLVESGGALVQAGGSLRLSCAASGSIFDHNAMGWYRQAPGKERELVAAITWSGTSTYYADSVKGRFTISRDNAKNTVYLQMNSLIPEETAVYYCAAYLYGAVRAYPYRWGRYNYWGQGTQVTVSS”: the “polyreactivity (PSR sort gate)” value is reported as “high polyreactivity”.

On to “QVQLVESGGALVQAGGSLRLSCAASGSIFYNAMGWYRQAPGKERELVAAISWRGTRTYYADSVKGRFTISRDNAKNTVYLQMNSLKPEDTAVYYCNKDYKYGVAYTRYDYWGQGTQVTVSS”, for which the “polyreactivity (PSR sort gate)” value is reported as “high polyreactivity”.

On to “QVQLVESGGALVQAGGSLRLSCAASGSTFDDNAMGWYRQAPGKERELVASITYRGGSTYYADSVKGRFTISRDNAKNTVYLQMNSLKPEDTAVYYCAKGHYFKYDYWGQGTQVTVSS”, for which the “polyreactivity (PSR sort gate)” value is “low polyreactivity”.

In the case of “QVQLVESGGALVQAGGSLRLSCAASGSTFNRNAMGWYRPAPGKERELVAAISSRGGSTFYADSVMGRFTISRDNATNTVYLQMNSLKPEDTAVYYCNALIVSSWVRYDYWRQGTQVTVSS”, the “polyreactivity (PSR sort gate)” value is listed as “high polyreactivity”.

Consider “QVQLVESGGALVQAGGSLRLSCAASGSTFNRYAMGWYRQAPGKERELVAAISASGGSTYYADSVKGRFTISRDNAKNTVYLQMNSLKPEDTAVYYCATLHYVGQEHDYWGQGTQVTVSS”, for which the “polyreactivity (PSR sort gate)” value was “low polyreactivity”.

For “QVQLVESGGALVQAGGSLRLSCAASGSTFRRYAMGRYRQAPGKERELVAAISYGGGTTYYADSVKGRFTISRDNAKNTVYLQMNSLKPEDTAVYYCAARGPYGYVLLYYWGQGTQVTVSS”, the “polyreactivity (PSR sort gate)” value was “high polyreactivity”.

“QVQLVESGGALVQAGGSLRLSCAASGSTIYQNAMGWYRQAPGKERELVAVISSGGSTYYADSVKGRFTISRDNAKNTVYLQMNSLKAEDTAVYYCAADRGTVSYLYSPRAVDYWGQGTQVTVSS”: the “polyreactivity (PSR sort gate)” value was “low polyreactivity”.

Consider “QVQLVESGGALVQAGGSLRLSCAASGSTYDSYSMGWYRKAPGKERELVAAITRRGTRTYYADSVKGRFTISRDNAKNTVYLQMNSLKREDTAVYYCAADRGYRLQSYGYWGQGTQVTVSS”, for which the “polyreactivity (PSR sort gate)” value is recorded as “high polyreactivity”.

As for “QVQLVESGGALVQAGGSLRLSCAASGYTFSKNTMGWYRQAPGKEREFVAAINWSGGSTYYADSVKGRFTISRDNEKNTVYLQMNSLKPEDTAVYYCAARRGGRRGYDYWGQGTQVTVSS”, the “polyreactivity (PSR sort gate)” value is “high polyreactivity”.

The values above are taken from the nanobody polyreactivity screen of Harvey et al. (2022).
